# Laboratory results reported in US20100273865A1 (VERENIGING VOOR CHRISTELIJK HOGER ONDERWIJS …, published 2010).
# B1: Flag-tagged dominant-negative NFIL3 (other)
# chain: MDYKDDDDKHMASMTGGQQMGRDPDLEQRAEELARENEELEKEAEELEQELAELENKLIALGEENATLKAELLSLKLKFGLISSTVYAQEIQKLSNSTAVYFQDYQTSKAAVSSYVDEHEPAMVAGSCISVIKHSPQSSLSDVSEVSSVEHTQESPAQGGCRSPENKFPVIKQEPVELESFARESREERGAYSASIYQSYMGSSFSTYSHSPPLLQVHGSTSNSPRTSEADEGVVGKSSDGEDEQQVPKGPIHSPVELQRVHATVVKVPEVNPSALPHKLRIKAKAMQVKVEALDSEFEGMQKLSSPADALAKRHFDLEKHGASGTAHSSLPPFSVQVTNIQDWSLRSEHWHHKELGGKTQGTFKTGVVEVKDSGYKVSEAENLYLKQGVANLSAEVVSLKRFIATQPISASDSR
# notes: Expressed in HEK293 cells from modified pcDNA3.1; Species of the NFIL3 portion is inferred from the rat cDNA named in the same paragraph; also called DN-NFIL3; dominant-negative NFIL3 protein
# Molecular target: T1, CREB (Homo sapiens (Human), UniProt P16220 1-327)
# T1 construct: also called CREB1
# Test: co-immunoprecipitation from HEK293 cells, Western blot
# T1 sequence (P16220 other isoform, or with tags, fused parts or gaps): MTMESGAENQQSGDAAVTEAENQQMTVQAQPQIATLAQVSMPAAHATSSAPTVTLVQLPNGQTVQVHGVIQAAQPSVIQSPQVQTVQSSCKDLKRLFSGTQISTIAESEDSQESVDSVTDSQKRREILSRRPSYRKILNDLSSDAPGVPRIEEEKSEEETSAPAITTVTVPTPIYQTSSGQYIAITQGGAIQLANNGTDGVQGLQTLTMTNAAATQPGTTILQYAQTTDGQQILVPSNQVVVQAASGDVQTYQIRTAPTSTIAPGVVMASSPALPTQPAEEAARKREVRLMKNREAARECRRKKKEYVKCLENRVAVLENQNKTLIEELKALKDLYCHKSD
binder,measurement,value
B1,binding result,no binding
